Data published in paper PMC4650713, “Crystal structure of Bax bound to the BH3 peptide of Bim identifies important contacts for interaction” (Cell Death & Disease, 2015).

B1: BaxI66AΔC21 (domain or fragment, UniProt Q07812 1-171, looked up)
chain: MDGSGEQPRGGGPTSSEQIMKTGALLLQGFIQDRAGRMGGEAPELALDPVPQDASTKKLSESLKRAGDELDSNMELQRMIAAVDTDSPREVFFRVAADMFSDGNFNWGRVVALFYFASKLVLKALSTKVPELIRTIMGWTLDFLRERLLGWIQDQGGWDGLLSYFGTPTWQ
notes: BaxΔC21 (Bax truncated at the C terminus by 21 amino acids, with C62S and C126S) with I66A; Called a BaxΔC21 mutant; In the crystal it stands as a core/latch dimer; also called BaxΔC21 mutant I66A
B2: BaxΔC26 (domain or fragment)
chain: MDGSGEQPRGGGPTSSEQIMKTGALLLQGFIQDRAGRMGGEAPELALDPVPQDASTKKLSESLKRIGDELDSNMELQRMIAAVDTDSPREVFFRVAADMFSDGNFNWGRVVALFYFASKLVLKALSTKVPELIRTIMGWTLDFLRERLLGWIQDQGGWDGLLSYFGSS
notes: Bax truncated at the C terminus by 26 amino acids, with C62S and C126S; C terminus G166; two extra residues (Ser–Ser) at the C terminus after intein digestion, a cloning artefact; In the crystals it stands as a domain-swapped core/latch dimer, each chain with one BH3 peptide; also called Bax C62S C126S truncated at the C terminus by 26 amino acids
B3: BaxΔC28 (domain or fragment)
chain: MDGSGEQPRGGGPTSSEQIMKTGALLLQGFIQDRAGRMGGEAPELALDPVPQDASTKKLSESLKRIGDELDSNMELQRMIAAVDTDSPREVFFRVAADMFSDGNFNWGRVVALFYFASKLVLKALSTKVPELIRTIMGWTLDFLRERLLGWIQDQGGWDGLLSYSS
notes: Bax truncated at the C terminus by 28 amino acids, with C62S and C126S; lacks F165; two extra residues (Ser–Ser) at the C terminus after intein digestion, a cloning artefact; In the crystal it stands as a core/latch dimer; also called Bax C62S C126S truncated at the C terminus by 28 amino acids

How the values were obtained:
[1] = molecular target: the molecule itself; test: crystal structure; BidBH3, BimBH3mini or BidBH3mini with core/latch dimers of BaxI66AΔC21, BaxΔC26 or BaxΔC28; threefold molar excess of peptide; about 1 M tri-sodium citrate, 0.1 M sodium cacodylate pH 6.5, 277 K
[2] = molecular target: the molecule itself; test: crystal structure; BimBH3:BaxΔC26; core/latch dimer induced by peptide, purified by SEC, threefold molar excess of peptide added; 0.1 M sodium bicine pH 9.0, 20% PEG6000, 277 K

Protein | stoichiometry N [1] | stoichiometry N [2]
B1 | 2 | –
B2 | – | 2
B3 | 2 | –
